The target in assay [1] is deglycosylated human CD25 (SinoBiological) (Homo sapiens, UniProt P01589, deglycosylated with N-glycosidase F). Nature of the assay: crystal structure.
In assay [2] the target is human CD25 on SU-DHL1 tumor cells (human CD25+) (Homo sapiens, UniProt P01589). Nature of the assay: flow cytometry on cells. (In flow cytometry, cells or beads pass a laser one at a time.)
The target of assay [3] is cynomolgus CD25 on HSC-F cells (cynomolgus CD25+) (Macaca fascicularis, UniProt H6WS54). Nature of the assay: flow cytometry on cells.

The text below walks through data of article PMC7116816 (Nature cancer, 2020).

human CD25 on SU-DHL1 tumor cells (human CD25+), sequence (P01589 22-272): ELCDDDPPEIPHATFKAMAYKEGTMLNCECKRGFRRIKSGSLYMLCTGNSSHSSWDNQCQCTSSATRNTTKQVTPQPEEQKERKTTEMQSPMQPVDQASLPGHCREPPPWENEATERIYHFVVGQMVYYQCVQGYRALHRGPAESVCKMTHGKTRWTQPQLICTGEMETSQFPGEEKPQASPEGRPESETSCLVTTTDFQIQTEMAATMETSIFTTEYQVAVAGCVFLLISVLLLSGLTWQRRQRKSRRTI
deglycosylated human CD25 (SinoBiological), sequence (P01589 22-213): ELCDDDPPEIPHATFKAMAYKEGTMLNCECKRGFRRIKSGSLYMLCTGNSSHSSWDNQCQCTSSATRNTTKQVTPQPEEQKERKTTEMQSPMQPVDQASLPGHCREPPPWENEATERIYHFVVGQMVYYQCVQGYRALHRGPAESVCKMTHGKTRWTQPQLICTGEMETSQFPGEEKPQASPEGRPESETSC

B1: Fab fragment of RG6292 (Fab, V domains shown)
VH: QVQLVQSGAEVKKPGSSVKVSCKASGGTFSSLAISWVRQAPGQGLEWMGGIIPIFGTANYAQKFQGRVTITADESTSTAYMELSSLRSEDTAVYYCARGGSVSGTLVDFDIWGQGTMVTVSS
VL: not shown
In the case of B1, the binding result in assay [1] is reported as “binds”.

B2: RG6292 (FF), the fully fucosylated version of RG6292 (antibody, V domains shown)
VH: B1 VH
VL: not shown
With B2, the binding result in assay [2] was “binds”.

B3: RG6292, a-fucosylated human IgG1 mAb (anti-human CD25^NIB) (antibody, V domains shown)
VH: B1 VH
VL: not shown
Regarding B3, in assay [3], the binding result is listed as “binds”.
